Test results taken from patent US7939292B2, “Modified heparinase III and methods of sequencing therewith” (Massachusetts Institute of Technology, priority 2000, dated 2011).

Legend:
B16BL6 melanoma cells = experiment: Lung metastasis of heparinase treated B16BL6 cells after tail vein injection; type: in vivo, mice; conditions: cells treated 30 min at 37° C. before tail vein injection; 13 days
Description: We next investigated the ability of heparinase treated B16BL6 melanoma cells to metastasize to the lungs. B16BL6 cells in log growth phase were briefly trypsinized and resuspended in PBS to a final concentration of 1×10^6 per ml. Prior to injection, cells were treated with either PBS, hep I […] or hep III […] for 30 min. at 37° C. 0.2 ml cell suspensions (2×10^5 cells) were injected slowly via tail vein. Mice were sacrificed 13 days later and lungs were harvested, rinsed with tap water. The number of nodules on lung surface were counted with the assistance of a dissection microscope. * indicates p<0.05 (Mann-Whitney test).

B16BL6 melanoma [1] = experiment: Histological examination of tumor samples (apoptosis, TdT labeling); type: in vivo, mice
Description: Immunohistochemistry was done as described (Parangi et al., 1996; O'Reilly et al., 1994) with minor modifications. Briefly, tumor tissues were fixed in either 4% (vol/vol) formaldehyde overnight for von Willebrand factor (vWF) staining and terminal deoxynucleotide transferase (TdT) labeling or in Glyo-Fixx solution overnight for Ki-67 nuclear antigen staining. Tissues were embedded in paraffin according to standard histological procedures. For vWF staining, sections (5 μm thick) were incubated with 0.2 N HCl for 10 min. autoclaved in a Coplin jar immersed with Target retrieval Solution (Dako) for 15 min. and permeabilized with 2 μg/ml proteinase K at 37° C. for 15 min. Sections were incubated with rabbit anti-human vWF antibody coupled with horseradish peroxidase (HRP) (Dako). Positive staining was detected by substrate reaction with diaminobenzidine. Sections were counterstained with Gill's hematoxylin and mounted in Permount (Fisher). […] Capillary density was determined by counting the number of vWF-positive capillaries per high power field (HPF, ×200). The proliferative and apoptotic indices of tumor cells within areas of viable tumor were estimated from the percentage of cells scored under a light microscope at 400-fold magnification. A minimum of 2000 cells were counted in each animal. # indicates standard error.

Erk-1, 2 = Erk-1, 2 activation in FGF2 stimulated B16BL6 cells (immunoblot); type: cell-based; conditions: enzyme 200 nM 30 min before 50 ng/ml FGF2
Description: a. Methods: B16BL6 cells in 10 cm culture dishes were serum starved for 48 hours before stimulation with 50 ng/ml FGF2. Cells were stimulated for 20 minutes before whole cell lysates were prepared with 1 ml modified RIPA buffer containing various enzyme inhibitors (50 mM Tris-HCl, pH 7.4, 1% NP-40, 0.25% Na-deoxycholate, 150 mM NaCl, 1 mM EDTA, 1 mM PMSF, 1 μg/ml aprotinin, leupeptin, and pepstatin, 1 mM activated Na3VO4, 1 mM NaF). Protein concentration in the lysate was determined using the Bio-Rad protein assay kit (BioRad) and adjusted accordingly for electrophoresis analysis. For the heparinase treated groups, cells were treated with either hep I or hep III (200 nM) for 30 min at 37° C. prior to addition of FGF2. The immunoblot was probed with anti-Erk-1, 2 or anti-phospho-Erk-1, 2 antibody (New England Biolabs; MA) and detected by anti-rabbit IgG conjugated to HRP using SuperSignal West Pico Chemiluminescent substrate (Pierce, Ill.).

B16BL6 cells = experiment: Growth in mice of B16BL6 cells after heparinase removal of the HLGAG coat; type: in vivo; conditions: HLGAG coat removed
Source text: There are two possible mechanisms by which heparinase may be acting on tumor cells. For instance, heparinase III treatment of cells may result in cells losing their unique surface HLGAG coat and this directly or indirectly may impinge on their ability to grow or metastasize. On the other hand heparinase III treatment of cells may also result in the generation of distinct HLGAG fragments, and these fragments could then directly or indirectly modulate tumor cell function. It was thought that heparinase III may function though either one of these mechanisms or through some combination of these mechanisms. To investigate the mechanisms of action further, we treated B16BL6 cells with either heparinases I or III, to remove the HLGAG coat on the tumor cell surface.
In further support of this conclusion ex vivo digestion of the HLGAG coat present on tumor cells with either heparinase, followed by centrifugation and resuspension in PBS to remove the enzyme and HLGAG fragments released from the cell surface, prior to in vivo injection results in the cells being functionally identical to controls. Thus the released tumor cell HLGAG fragments appear to play the key role in modulating tumor growth and metastasis.

FGFR1 = FGFR1 phosphorylation in B16BL6 tumor samples; design: species or system mice; conditions: mouse, in vivo
Description: c. Effect of treatment of tumor with hep I and hep III in FGFR1 activation compared to PBS. Level of phosphorylated FGFR1 in tumor samples was assessed by standard immunoprecipitation followed by Westernblotting with phosphotyrosine specific antibody. Primary B16BL6 tumors were grown and treated as described earlier and at day 15 the tumor was harvested in cold modified RIPA buffer containing enzyme inhibitors and homogenized. The homogenates were past through 25-gauge needle 3 times and centrifuged. The supernatant was adjusted for protein concentration using the Bio-Rad protein assay kit (Bio-Rad). FGFR1 was immunoprecipitated with poly-clonal anti-FGFR1 antibody (Santa Cruz Biotechnology, Inc., CA). Samples were then pelleted, washed, and eluted from the beads by addition of sample buffer and boiled for 3 minutes (Kapila, Y. L., Wang, S. & Johnson, P. W. Mutations in the heparin binding domain of fibronectin in cooperation with the V region induce decreases in pp125(FAK) levels plus proteoglycan-mediated apoptosis via caspases. J Biol Chem 274, 30906-13 (1999).). After electrophoresis, the gel was transferred to nitrocellulose membrane by standard methods. The immunoblot was probed with phosphotyrosine specific antibody conjugated to HRP (RC20; Transduction Laboratories, Lexington, Ky.) and developed with SuperSignal West Pico Chemiluminescent substrate. […]

B16BL6 melanoma [2] = experiment: Primary tumor growth of B16BL6 melanoma in mice treated with heparinases; type: in vivo; conditions: 0.5 mg/kg/day
Source text: Heparinases I and III, which have very distinct substrate specificities for cleaving HLGAGs, were employed as tools to investigate the role of HLGAGs in tumor growth and metastasis. While heparinase I cleaves at the highly sulfated regions of HLGAGs, heparinase III only cleaves at the under-sulfated regions of the polysaccharide chain, thereby rendering these enzymes powerful tools to investigate in vivo and in vitro roles of HLGAGs, in development, morphogenesis, angiogenesis etc. To examine the roles of HLGAGs in tumor growth and metastasis, we used B16BL6 melanoma as a model system and treated tumor-bearing mice with either heparinases I or III to investigate both primary tumor growth as well as tumor metastasis. Consistent with the current paradigm, heparinase I accelerated tumor growth (FIG. 8). At a dosage of 0.5 mg/kg/day of heparinase I, tumor growth was increased by about 39%. […] Inhibition of primary tumor growth by heparinase III was first observed at 2 mg/kg per day. Tumor growth was inhibited by 73% at 12 mg/kg per day, the maximum dosage tested in the study (FIG. 8).
Mice, 15 days after tumor implantation with B16BL6 melanoma, were examined. 4×10^5 log growth phase B16BL6 melanoma cells in 0.1 ml PBS were injected to the flank of C57BL/6 mice on day 1. Daily injection of 0.1 ml of PBS, heat inactivated hep III or active heparinase III (2 mg/ml, recombinantly expressed, purified, buffer exchanged with PBS, and concentrated) started at the day 4 and continued throughout the experiment. At day 7, osmotic pumps (100 μl capacity delivering at 0.5 μl per hour) containing PBS or 3 mg/ml hep III were implanted subcutaneously at a place remote from the tumor site. Mice were sacrificed at day 15.
FIG. 8 depicts the tumor volume of the tumors isolated from the mice described above. Tumor volume was measured daily after day 7 with a caliper and calculated with the formula [volume=0.52×(width)^2×(length)].

Akt = Akt activation in B16BL6 tumor; design: species or system mice; conditions: mouse, in vivo
Description: f. Effect of heparinase treatment on Akt activation. The primary tumor was treated and processed as described above. Akt antibody and phospho-Akt antibody from New England Biolabs were used to probe the immunoblot.

B1: heparinase I: HLGAG degrading enzyme that cleaves at the highly sulfated regions of HLGAGs (protein, UniProt Q05819 22-384, looked up)
Heparin lyase I: QQKKSGNIPYRVNVQADSAKQKAIIDNKWVAVGINKPYALQYDDKLRFNGKPSYRFELKAEDNSLEGYAAGETKGRTELSYSYATTNDFKKFPPSVYQNAQKLKTVYHYGKGICEQGSSRSYTFSVYIPSSFPDNATTIFAQWHGAPSRTLVATPEGEIKTLSIEEFLALYDRMIFKKNIAHDKVEKKDKDGKITYVAGKPNGWKVEQGGYPTLAFGFSKGYFYIKANSDRQWLTDKADRNNANPENSEVMKPYSSEYKTSTIAYKMPFAQFPKDCWITFDVAIDWTKYGKEANTILKPGKLDVMMTYTKNKKPQKAHIVNQQEILIGRNDDDGYYFKFGIYRVGNSTVPVTYNLSGYSETAR
B16BL6 melanoma cells
  ability of treated B16BL6 cells to metastasize to the lungs compared to PBS treated cells: marginally effected, if any
B16BL6 melanoma [1]
  apoptosis in tumor samples, enzyme treated tumors: reduced apoptosis
Erk-1, 2
  Erk-1, 2 activation upon FGF2 stimulation: increased Erk-1, 2 activation
B16BL6 cells
  ability of treated B16BL6 cells to grow in mice compared to untreated cells: no effect
FGFR1
  phosphorylation of FGFR1 in primary tumor: opposite effect on the phosphorylation of FGFR1
B16BL6 melanoma [2]
  increase of tumor growth: about 39%
Akt
  activation of Akt in tumor: no change in activation of Akt
